Data on two molecules can be found in paper doi:10.1101/2025.09.16.676304, “FoxP3 forms a head-to-head dimer in vivo and stabilizes its multimerization on adjacent microsatellites”.

What all share (conditions): protein: recombinant;recombinant; tags: His6-NusA removed by HRV3C;His6-NusA removed by HRV3C; copies: 1;1
The target in one data set is T1, FoxP1 RBR-FKH;NFAT1 (Mus musculus;Mus musculus, UniProt P58462;Q60591 427-579;394-680, |).
T1 sequence 1: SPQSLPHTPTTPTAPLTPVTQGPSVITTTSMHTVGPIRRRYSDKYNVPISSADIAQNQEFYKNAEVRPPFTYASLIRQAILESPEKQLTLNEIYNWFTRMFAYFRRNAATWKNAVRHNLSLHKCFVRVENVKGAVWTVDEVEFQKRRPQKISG
T1 sequence 2: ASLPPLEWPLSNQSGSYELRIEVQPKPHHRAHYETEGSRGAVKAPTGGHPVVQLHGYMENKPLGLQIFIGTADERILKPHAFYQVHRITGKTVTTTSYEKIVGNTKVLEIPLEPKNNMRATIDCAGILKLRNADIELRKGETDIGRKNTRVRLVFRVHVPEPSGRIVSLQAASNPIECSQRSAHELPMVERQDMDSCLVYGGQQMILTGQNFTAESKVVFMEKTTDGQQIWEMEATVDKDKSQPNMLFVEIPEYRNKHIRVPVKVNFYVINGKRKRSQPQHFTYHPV
In words: EMSA; NFAT 0.4 uM; FoxP1 monomer; EMSA: 20 mM HEPES pH 7.5, 150 mM NaCl, 1.5 mM MgCl2, 2 mM DTT, 4 C, 0.2 uM DNA; pull-down: 20 mM Tris-HCl pH 7.5, 100 mM NaCl, 1.5 mM MgCl2, RT, 0.4 uM protein, 0.1 uM DNA. For orientation: In EMSA bound probe runs differently from free probe, usually more slowly.

For data set [1], the target named is T2, FoxP3 RBR-FKH;NFAT1 (Mus musculus;Mus musculus, UniProt Q99JB6;Q60591 284-423;394-680, |).
T2 sequence 1: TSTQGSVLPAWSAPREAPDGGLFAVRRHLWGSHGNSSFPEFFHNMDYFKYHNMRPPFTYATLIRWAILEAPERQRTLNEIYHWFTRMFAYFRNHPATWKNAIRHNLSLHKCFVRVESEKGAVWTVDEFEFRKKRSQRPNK
T2 sequence 2: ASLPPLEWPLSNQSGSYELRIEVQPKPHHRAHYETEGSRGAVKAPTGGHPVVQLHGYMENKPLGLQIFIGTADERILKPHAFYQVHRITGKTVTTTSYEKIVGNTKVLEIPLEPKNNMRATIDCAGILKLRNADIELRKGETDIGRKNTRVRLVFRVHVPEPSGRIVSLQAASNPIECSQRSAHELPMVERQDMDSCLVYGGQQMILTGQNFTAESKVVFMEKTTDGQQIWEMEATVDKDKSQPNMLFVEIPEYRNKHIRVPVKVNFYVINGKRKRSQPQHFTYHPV
In words: EMSA; NFAT 0.4 uM; FoxP3 monomer; EMSA: 20 mM HEPES pH 7.5, 150 mM NaCl, 1.5 mM MgCl2, 2 mM DTT, 4 C, 0.2 uM DNA; pull-down: 20 mM Tris-HCl pH 7.5, 100 mM NaCl, 1.5 mM MgCl2, RT, 0.4 uM protein, 0.1 uM DNA.

Data set [2] concerns the target T2, FoxP3 RBR-FKH;NFAT1. In words: EMSA; NFAT 0.4 uM; FoxP3 dimer; EMSA: 20 mM HEPES pH 7.5, 150 mM NaCl, 1.5 mM MgCl2, 2 mM DTT, 4 C, 0.2 uM DNA; pull-down: 20 mM Tris-HCl pH 7.5, 100 mM NaCl, 1.5 mM MgCl2, RT, 0.4 uM protein, 0.1 uM DNA.

B1: sFKHM (DNA2) (dsDNA)
DNA 1: TAGGAAAATTTGCCGCGTCGAGTAAACATC
DNA 2: GATGTTTACTCGACGCGGCAAATTTTCCTA
On to B1, for which the binding result with FoxP1 RBR-FKH;NFAT1 and in the data set with FoxP3 RBR-FKH;NFAT1 [1] was “binds” each time.

B2: IR-FKHM (DNA1) (dsDNA)
DNA 1: TAGGAAAATTTGTTTACTCGAGTAAACATC
DNA 2: GATGTTTACTCGAGTAAACAAATTTTCCTA
Regarding B2, the binding result in the data set with FoxP3 RBR-FKH;NFAT1 [2] and with FoxP1 RBR-FKH;NFAT1 was “binds” in each case.
